Data reported in the supplement of paper PMC12042874.
± gives the uncertainty stated by the source.

Assay: amyloid nucleation score (Sup35N fusion, yeast selection) (log enrichment); library NNK1; higher = more nucleation; inactive = no reads after selection
Procedure, shortened: (§1)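 Nucleation score is defined as the DiMSum log enrichment of output over input reads, with centring on the mode score of non-aggregating sequences. A minimum of 100 input reads was required for each sequence. Reads came from Illumina sequencing of plasmid inserts from psi-negative yeast expressing Sup35N fused to peptides of 20 random codons, induced with 100 μM copper sulfate for 24 hours and grown 7 days at 30°C on medium lacking adenine and uracil.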

Point of comparison: TASFY, amyloid nucleation score -0.41 ± 1.6. Against it:
- GVLLV — within error, 0.129 ± 0.93
- DVGSNKGAIIGLMVGGVVIA — higher, 3.61 ± 0.19
- SDASLLTKSVFADGRDQVTR — within error, 0.433 ± 0.28
- WLHGFKWRED — within error, -0.541 ± 0.68
- AGLPRSGSIQRDYREKVWAA — within error, -0.194 ± 1.3
- RFSRVFIRLMGDVALSSGLL — within error, 0.532 ± 0.53
- LQPNLMEGAMSSGGTEEVTV — within error, -0.565 ± 1.4
- YNLSGFDNGFSISLSCSDVA — within error, 0.886 ± 0.74
- VRNKMGSRSYSTS — within error, -1.65 ± 2.7
- QRSCNAVTFVGCQYNFFPTE — higher, 7.091 ± 0.05
- TGQACAWGGSVILTVSCDRY — higher, 2.43 ± 0.12
- IYGELLHLWLISEFCDVRNC — within error, 0.788 ± 0.79
- GEIGKKNY — within error, 1.2 ± 0.35
- CYKVFPVVSYKVGGASLTAR — within error, 0.105 ± 0.31
- LTSRVQCKNNCFSD — higher, 2.38 ± 0.55
- DSVVCRKYDVIGKCQRRGTC — within error, 0.716 ± 0.61
- GSTCIRTGSVIVGRL — within error, 0.301 ± 0.28
- CFQLRVGMTDDALWRLMC — within error, -0.452 ± 1.9
- VYMRNKEQVNIGHDTVNLSL — within error, 0.58 ± 0.43
- LYLEGINVFSVMLHEVLHTG — within error, -0.052 ± 0.43
- VSIGIISII — within error, -0.663 ± 1.6
- LLDMNANECYLPIWWQSEVT — within error, 0.092 ± 0.96
- NNAGYRYALRKISSHLLRPV — within error, -0.092 ± 0.44
- VNCLLDQQYR — within error, 0.746 ± 0.46
- GQFEFCMFAQYGAS — within error, -1.14 ± 2.4
- RLDSPDVVSAFCEAALASAS — within error, 0.136 ± 0.76
- VTNPNYP — within error, -0.696 ± 0.65
- GSCLFVRGSFVDVGRLFESV — within error, 0.643 ± 0.67
- SITMGQS — within error, -0.546 ± 0.46
- IWTKSCDCVCSCGGYQGCYR — within error, -0.038 ± 0.19
- RTLGFLRCFIITSVDSTKNA — within error, 0.514 ± 0.8
- KSTTYKNLPSHGLRNSICTK — within error, 0.842 ± 0.69
- SKDCNKWVRPRHGLYRFGGF — within error, 0.071 ± 0.34
- SFSCSVVLNRILMGIIYTCG — within error, -0.836 ± 0.55
- SRGHDVRLTACDADGGLGLC — within error, -0.17 ± 0.46
- MILFSYNG — within error, 1.7 ± 0.58
- GYMSKLEYLPTQLYLLSLRE — within error, 0.85 ± 0.44
- GMGGGICSSEKMRCGNVEGV — within error, -0.857 ± 0.34
- SLFKRILYHVSGFRYCCTSV — within error, -1.01 ± 1
- LVRGVHT — within error, -0.446 ± 0.28
- CGWRSLVVFSFDLDAS — within error, 0.876 ± 0.47
- SKLLHMEWNQELDPSLSLLS — within error, -1.14 ± 0.66
- TRTAGRSVCPVIQLMSWAAY — within error, 0.277 ± 0.44
- GLMNLVSDRMSWLNEV — within error, 0.485 ± 0.84
- GYAFVY — within error, -0.037 ± 0.52
- TDLKLWH — within error, 0.136 ± 1.2
- YSYNYGWTVAEELYNRCIGA — within error, 0.266 ± 0.36
- YSWLVWGTSPV — within error, 0.445 ± 0.38
- WFAVWRIRCVRSDVANWMLS — within error, 0.283 ± 0.37
- LARLLNGQVGNDYCPGVPGG — within error, -0.543 ± 0.4
- CSVFWCFVLGLVNRNLLKRS — within error, -0.928 ± 0.4
- LVTFNDSQLSTWASLGLNS — within error, -0.003 ± 0.46
- EFKTDPDYT — within error, 0.2 ± 0.53
- YIPICIRSYIKNAS — within error, 0.413 ± 1.2
- DYPRSIILCWHF — within error, -1.39 ± 0.74
- LYIYWCSWVNGTFT — within error, 0.393 ± 0.33
- TANTLRYSFCAT — within error, -0.213 ± 0.32
- ARYHYWGGERASSLNKVSQW — within error, 0.699 ± 1
- CCYYTSVILVFDGRFDEMPY — higher, 4.23 ± 0.07
- GAKYMNMRIRRTSFGSAYQS — within error, 0.335 ± 0.48
- GDANLGKQLWRGWNVG — within error, 0.228 ± 1.2
- RVRLTFCCLMAVRSRSMISK — within error, 0.436 ± 1.2
- NMEWYRTFCSQCYIGRRGTS — within error, 0.476 ± 0.9
- TRLGYISRDKGYSPCR — within error, -0.146 ± 0.39
- ADVQWRHRTGISSSIVRSGA — within error, 0.822 ± 1
- SVYWKYLYP — higher, 1.98 ± 0.098
- CPLSNGSVRVNDGATTLAWL — within error, -0.956 ± 2.1
- KTWLIG — within error, 0.109 ± 0.54
- RLMNFE — within error, -0.257 ± 0.43
- GQMGPMKREDGVLFVVTREN — within error, -0.255 ± 1.1
- IGILMVACRLHNVSLYLCSG — within error, -0.514 ± 0.96
- KIGWL — within error, -0.555 ± 0.58
- MELTIAKSEMHVFKGGCVQL — within error, -0.45 ± 0.57
- RWIFSSWLLDGILGERCQTV — within error, -0.484 ± 1.1
- TLLPIKHSCHGNWINQLYGT — within error, -0.485 ± 0.32
- AHYRRVSVAQTHWMADPFGR — within error, 0.976 ± 0.36
- CPASKFDQGP — within error, -0.038 ± 0.81
- IKFRCYLCG — within error, 0.44 ± 0.9
- MMYDGIVSR — within error, -0.184 ± 0.31
- GVVCCTANF — higher, 5.68 ± 0.065
- LAFDYLLKFLDCR — within error, -0.47 ± 0.53
- YNGGGSYNWVWMGNSPVKTR — within error, 0.969 ± 0.61
- VYYYVLSLV — within error, 0.207 ± 1.4
- VVMEMINFHPSTLCSILQ — higher, 5.07 ± 0.11
- ICVMSPGMESCGLVFGAWYT — within error, 0.61 ± 0.56
- RCLQKPMRLRSQKIKQCVLR — within error, -0.341 ± 1.4
- FEFDNR — within error, -0.003 ± 0.53
- LFVVFHALTIFYP — within error, -0.437 ± 1.2
- STPNRLGPMPSWVGSTEAVV — within error, -0.474 ± 1.1
- RGLVFEGKLAFTVATVVFFW — within error, -1.19 ± 1.4
- ETLSFGKHLPRVHAFHHVRC — within error, -0.671 ± 1.2
- IYNIVGSLMSSAVFPGQSIS — within error, -1.38 ± 1.2
- MSNKTDEDESIYNRVGVIMG — within error, 0.004 ± 0.33
- SPKSLLKRLWEYARKNTVML — within error, 0.151 ± 0.49
- TVCYTGEVRMLRS — higher, 4.22 ± 0.068
- DWCYYKRADRRTSSESSRAG — within error, 0.333 ± 0.99
- FVIFSIELCGHRATSSSFNL — higher, 5.565 ± 0.047
- GKGWYTDSMCRIRMMNARLL — within error, 0.233 ± 0.34
- HVCSFLQAGAHWRRVAVCAG — within error, 0.124 ± 0.73
- VLDQHPRDFESRGMVMANFY — higher, 1.55 ± 0.24
- KVLITCCGPKWSCSLAPDEL — within error, 0.668 ± 0.58
- SHLTRDSILRVRVCWTNCVQ — within error, -0.026 ± 0.59
- DKEMECIYEYAL — within error, 0.523 ± 0.55
- SRRKQIVGKVSVFFEASRFV — within error, -1.06 ± 1.2
- KTLSLLIL — within error, 0.387 ± 0.37
- VLCRINGVRS — within error, 1.1 ± 0.97
- SQTSVPGGSDEAGAGVKQGF — within error, 0.134 ± 0.56
- VSYKTGIWGVSCDIDGVY — within error, -0.182 ± 0.24
- WTAHSSL — within error, 1.09 ± 0.76
- ILFDLQPKFVRR — within error, 0.693 ± 0.48
- PSGTGWRLDGSV — within error, 0.09 ± 0.38
- APHWLLRDPIESTADNDVYY — higher, 2.73 ± 0.44
- CLMIKMHSILIDVIYLHTRV — within error, -0.363 ± 0.77
- FHGSGESVNTDTMLTLYISV — within error, -0.157 ± 0.54
- YFYIPFNEMNRWTYCCIRWW — within error, -0.04 ± 0.36
- DSWLVAESSIHAF — within error, -0.049 ± 1.5
- DALDLRSWQGEL — within error, -0.274 ± 1.7
- YILVYSSVTRRYHKSRSYVG — within error, -0.09 ± 0.29
- DWNEEACV — within error, 0.432 ± 0.57
- RRPNETS — within error, -1.08 ± 2.4
- FWNMWAYEMRFVLRNYAL — within error, -0.908 ± 0.43
- TLYCTFSTWYPLYKLQHDRY — higher, 4.55 ± 0.14
- QKRAMYDLGCSFSLFNLCYQ — higher, 5.28 ± 0.062
- ITMYANMNSGQFTMLESMPD — within error, -0.303 ± 0.26
- TISKLGQPYRRNSKPL — within error, -0.378 ± 0.41
- IGCQLNIRVCLKVILLYVEA — within error, 0.259 ± 0.95
- VVNVQMNQPYMQCFPQDTR — higher, 3.93 ± 0.082
- CFSHVWVDLIDFYVRFVLFR — within error, -0.209 ± 0.69
- CGVNLKNLLTMLPDIGLHAV — within error, 0.227 ± 0.25
- AYPWRITFDAWISYV — within error, 0.294 ± 0.76
- PSNPFHCVMKARKSLNGIDR — within error, -0.09 ± 0.29
- RKCEDGFWGKRDSATKGP — within error, 0.034 ± 0.29
- YVLLGFNYKTFYMSVGLDRE — within error, -0.005 ± 0.52
- YSGVPLARQCGADGLKGTGE — within error, 0.724 ± 1.2
- NLTRITF — within error, -0.762 ± 1.1
- LNTQVRVGDKVCLRIFARLL — within error, 0.944 ± 0.9
- SRRFYLTPELPVTHVCCVGK — within error, 1.03 ± 0.62
- FCNSALLSQLGFLKTWDQRG — within error, -0.604 ± 1.6
- GGWGRGECPYSHTKWYVKSG — within error, -0.999 ± 0.94
- RWCLVSGMILCSLLCVYSFN — within error, -1.62 ± 2.4
- FKHDYKFEGVCRVNDFLMGF — within error, -0.115 ± 0.9
- CWRFRPFRPASIKFTQYNNH — higher, 4.49 ± 0.072
- TGLVWYYCHSHRWNFRPCQW — within error, 0.173 ± 0.55
- HFSNIDNARNCSDSYWRYGI — within error, 0.168 ± 0.3
- LESRFRKMFPRVVRDTWGRG — within error, -0.628 ± 1.7
- NEAMN — within error, -0.21 ± 0.37
- YDRNCFGAPFNSVVQVTGKS — within error, -0.94 ± 1
- LCVSCARVKLLNRT — within error, -0.144 ± 0.55
- LSPLNVKIDSSFVFYIIRLK — within error, -0.178 ± 0.36
- YSQCSRVNFWISAYCVNYIN — higher, 7.03 ± 0.071
- NPLTGAL — within error, -0.406 ± 0.56
- RFIIFNHDLGLRD — within error, -0.384 ± 0.51
- SFNVAMCRCDVYL — higher, 7.027 ± 0.047

With NKYLLNF the amyloid nucleation score was “inactive”.
In the case of YLLLGYSHYQMNVLFNTRQS, the amyloid nucleation score is reported as “inactive”.
In the case of KTGCVGTS, the amyloid nucleation score is reported as “inactive”.
In the case of SLSRLRHNSFWQRTFAMLVS, the amyloid nucleation score is reported as “inactive”.
With WHKLRPFEGAIKMFSAWISL the amyloid nucleation score was “inactive”.
For QRCYCGSCDWLRAMFVCWGL, the amyloid nucleation score was “inactive”.
For GFKRRYCDNISAIHPDSGCK, the amyloid nucleation score was “inactive”.
For SCVLRLNMAYIIVVVNSLEC, the amyloid nucleation score was “inactive”.
With DNWSMDVLFLWMASLGNKYR the amyloid nucleation score was “inactive”.
In the case of SLFATGN, the amyloid nucleation score is reported as “inactive”.

Assay: amyloid nucleation score (Sup35N fusion, yeast selection) (log enrichment); library NNK3; higher = more nucleation; inactive = no reads after selection
Procedure, shortened: as §1

In the case of GVLLV, the amyloid nucleation score is reported as “inactive”.

Assay: amyloid nucleation score (Sup35N fusion, yeast selection) (log enrichment); library NNK2; higher = more nucleation; inactive = no reads after selection
Procedure, shortened: as §1

Work on DVGSNKGAIIGLMVGGVVIA yielded an amyloid nucleation score of 2.4 ± 0.19.
